{"source": "IntAct's records for PubMed 18716626", "parents": {"B1": {"name": "Shugoshin-1 (Schizosaccharomyces pombe (strain ATCC 38366 / 972)), Q9P7A0 (parent)", "chain": "MNFQFINSNINNEDKLPMESLKKKFLKQNREIIKINTQLSIKIRESENEIQDLIQENFTLKSYLVKLEARFRNQSQTEDLLKNFFPEIQTIHKKISQVQSLLKIIEKKCSSDFLEANVKSQFTTCENKDSKEDYQILHNKRLEYVSFNDELKSLETGQPLYCFQDFQKKVHGPPALSEKPGKCILKDKTNAHVNKIPQDEVNYSLPQKNITIFSKELKENEFESINEGETEEEKAKTSNVCVCIPCKSAEQITDLKGQATGDSSPCDFEESQPRINGREKLRRSVKVINYAIPSLRTKLRRDFDLPSDRKRKRHPRGKA", "partner": "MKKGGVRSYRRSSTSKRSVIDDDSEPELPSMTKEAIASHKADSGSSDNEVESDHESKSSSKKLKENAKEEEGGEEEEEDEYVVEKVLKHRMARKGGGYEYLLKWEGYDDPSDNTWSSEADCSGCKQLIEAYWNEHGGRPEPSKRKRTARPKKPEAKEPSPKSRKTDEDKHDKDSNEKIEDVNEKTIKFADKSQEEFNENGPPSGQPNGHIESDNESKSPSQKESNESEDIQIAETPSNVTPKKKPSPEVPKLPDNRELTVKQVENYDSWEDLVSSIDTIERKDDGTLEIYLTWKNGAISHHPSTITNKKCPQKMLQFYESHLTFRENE"}, "B2": {"name": "Chromatin-associated protein swi6 (Schizosaccharomyces pombe (strain ATCC 38366 / 972)), P40381 (parent)", "chain": "B1 partner", "partner": "B1 chain"}}, "data": [{"variants_of": "B1", "conditions": "with swi6_schpo swi6, P40381", "values": [{"variant": "MNFQFINSNINNEDKLPMESLKKKFLKQNREIIKINTQLSIKIRESENEIQDLIQENFTLKSYLVKLEARFRNQSQTEDLLKNFFPEIQTIHKKISQVQSLLKIIEKKCSSDFLEANVKSQFTTCENKDSKEDYQILHNKRLEYVSFNDELKSLETGQPLYCFQDFQKKVHGPPALSEKPGKCILKDKTNAHVNKIPQDEVNYSLPQKNITIFSKELKENEFESINEGETEEEKAKTSNVCECIPCKSAEQITDLKGQATGDSSPCDFEESQPRINGREKLRRSVKVINYAIPSLRTKLRRDFDLPSDRKRKRHPRGKA", "note": "[V242E]", "effect of a mutation on the interaction": "disrupting interaction strength"}]}, {"variants_of": "B2", "conditions": "with sgo1_schpo sgo1, Q9P7A0", "values": [{"variant": "MKKGGVRSYRRSSTSKRSVIDDDSEPELPSMTKEAIASHKADSGSSDNEVESDHESKSSSKKLKENAKEEEGGEEEEEDEYVVEKVLKHRMARKGGGYEYLLKWEGYDDPSDNTWSSEADCSGCKQLIEAYWNEHGGRPEPSKRKRTARPKKPEAKEPSPKSRKTDEDKHDKDSNEKIEDVNEKTIKFADKSQEEFNENGPPSGQPNGHIESDNESKSPSQKESNESEDIQIAETPSNVTPKKKPSPEVPKLPDNRELTVKQVENYDSWEDLVSSIDTIERKDDGTLEIYLTWKNGAISHHPSTITNKKCPQKMLQFYESHLTARENE", "note": "[F324A]", "effect of a mutation on the interaction": "disrupting interaction strength"}]}]}
